Test [1] addresses human metapneumovirus (hMPV) fusion (F) protein (Strain: A/TN92-4) (human metapneumovirus) (UniProt Q6WB98). As to the kind of experiment: flow cytometry, fluorescent staining of Hela cells transfected with hMPV/hPIV3 mRNA constructs; secondary antibody only (control).
Test [2] has the same target. Put plainly: flow cytometry, fluorescent staining of Hela cells transfected with hMPV/hPIV3 mRNA constructs; MPE8 at 500 nM plus secondary antibody. Background: A flow cytometer gives signals particle by particle.

In test [1], “secondary antibody (staining control, 'Secondary only')” displayed a Mean FL4-H of 2160.
For “hMPV-F-specific antibodies MPE-8 (antibody)”, the Mean FL4-H in test [2] is 617000.

For the origin of these results see patent US20200069794A1.
